Experimental data: US12048734B2, “Bioactive peptides and methods of use thereof” (OP-T LLC, priority 2020, dated 2024)

Tested on: CD4loCD40+ T cells (Th40 cells)
Test: Cytokine production of CD40- or CD3-stimulated Th40 cells with galectin-9
Type: cell-based, NOD mice
Details: 3 days; indicated concentrations of galectin-9
Procedure: CD4loCD40+ T cells (Th40 cells) were sorted from 7-20 weeks old female NOD spleens. Cells were either isotype treated, CD40- or CD3-stimulated in the absence/presence of indicated concentrations of galectin-9 (gal-9; mg/ml) for 3 days then cytokines were measured. Bar graphs depict means with SEM. Asterisks denote significant differences determined by one-way Anova; *-P between 0.01 and 0.05; **-P, 0.01; ***-P, 0.001. Measurements were done on four individual mice of different ages.

B1: galectin-9: galectin-9 protein added to Th40 cell cultures (protein, UniProt O00182 1-355, looked up)
Galectin-9: MAFSGSQAPYLSPAVPFSGTIQGGLQDGLQITVNGTVLSSSGTRFAVNFQTGFSGNDIAFHFNPRFEDGGYVVCNTRQNGSWGPEERKTHMPFQKGMPFDLCFLVQSSDFKVMVNGILFVQYFHRVPFHRVDTISVNGSVQLSYISFQNPRTVPVQPAFSTVPFSQPVCFPPRPRGRRQKPPGVWPANPAPITQTVIHTVQSAPGQMFSTPAIPPMMYPHPAYPMPFITTILGGLYPSKSILLSGTVLPSAQRFHINLCSGNHIAFHLNPRFDENAVVRNTQIDNSWGSEERSLPRKMPFVRGQSFSVWILCEAHCLKVAVDGQHLFEYYHRLRNLPTINRLEVGGDIQLTHVQT
CD40 and CD3 induced cytokine production level: alters the production level
